According to paper PMC7077502:

Biological target: His6-eIF4A1 (UniProt P60843 1-406)
Test: fluorescence polarization

His6-eIF4A1, sequence (P60843 whole entry): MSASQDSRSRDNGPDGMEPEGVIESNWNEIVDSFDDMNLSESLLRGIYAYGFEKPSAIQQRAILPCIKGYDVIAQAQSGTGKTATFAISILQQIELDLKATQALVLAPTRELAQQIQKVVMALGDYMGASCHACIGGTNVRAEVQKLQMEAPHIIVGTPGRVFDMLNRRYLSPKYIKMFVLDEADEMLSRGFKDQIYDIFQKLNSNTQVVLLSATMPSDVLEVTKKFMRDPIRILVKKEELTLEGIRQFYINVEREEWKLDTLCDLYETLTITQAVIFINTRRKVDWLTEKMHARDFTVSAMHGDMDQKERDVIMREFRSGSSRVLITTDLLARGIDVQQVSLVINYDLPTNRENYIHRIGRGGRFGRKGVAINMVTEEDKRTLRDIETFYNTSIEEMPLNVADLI

**Q.** Does AGAGAGAGAGAGAGAG (ssRNA) [r(AG)8] bind?
**A.** binds
